Key:
His6-MBP = His6-MBP (UniProt P0AEX9 27-392); assay: fluorescence anisotropy; FA: 20 mM Tris pH 7.5, 75 mM KCl, 5 mM MgCl2, 1 uM BSA, 1 mM DTT, 100 ng/uL tRNA, ~5 nM RNA, RT 1 h; EMSA: 50 mM Tris pH 7.5, 145 mM KCl, 5 mM MgCl2, 1 uM BSA
His6-MBP-FXR1P [1] = target: T1, His6-MBP-FXR1P (Homo sapiens, UniProt P51114-2 1-539); assay: fluorescence anisotropy; 75 mM K+, 5 mM Mg2+; FA: 20 mM Tris pH 7.5, 75 mM KCl, 5 mM MgCl2, 1 uM BSA, 1 mM DTT, 100 ng/uL tRNA, ~5 nM RNA, RT 1 h; EMSA: 50 mM Tris pH 7.5, 145 mM KCl, 5 mM MgCl2, 1 uM BSA; settings: protein: recombinant; tags: N-terminal His6-MBP; label: 3' fluorescein; G-quadruplex forming
T1 sequence (P51114 other isoform, or with tags, fused parts or gaps): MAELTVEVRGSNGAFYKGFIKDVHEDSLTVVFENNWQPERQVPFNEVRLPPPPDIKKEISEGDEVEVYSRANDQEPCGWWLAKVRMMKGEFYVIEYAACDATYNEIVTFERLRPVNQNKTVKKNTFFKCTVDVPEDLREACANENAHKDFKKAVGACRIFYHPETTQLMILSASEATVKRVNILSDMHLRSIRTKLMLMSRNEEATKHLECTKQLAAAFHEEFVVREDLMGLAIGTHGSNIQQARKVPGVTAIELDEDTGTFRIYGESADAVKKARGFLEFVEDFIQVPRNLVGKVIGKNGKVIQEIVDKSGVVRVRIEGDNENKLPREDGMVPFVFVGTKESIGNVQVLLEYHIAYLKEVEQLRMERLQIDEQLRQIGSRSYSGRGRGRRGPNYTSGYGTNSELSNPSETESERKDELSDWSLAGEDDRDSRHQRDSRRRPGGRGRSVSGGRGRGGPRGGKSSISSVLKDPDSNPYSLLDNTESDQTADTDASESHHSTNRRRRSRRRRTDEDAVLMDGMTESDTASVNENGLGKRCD

His6-MBP-FXR1P [2] = target: T1, His6-MBP-FXR1P; assay: EMSA; 250 nM protein; FA: 20 mM Tris pH 7.5, 75 mM KCl, 5 mM MgCl2, 1 uM BSA, 1 mM DTT, 100 ng/uL tRNA, ~5 nM RNA, RT 1 h; EMSA: 50 mM Tris pH 7.5, 145 mM KCl, 5 mM MgCl2, 1 uM BSA; settings: protein: recombinant, tags: N-terminal His6-MBP

B1: poly-G17U (structured_RNA)
RNA: GGGGGGGGGGGGGGGGGU
- binding result (His6-MBP): no binding
- Kd (His6-MBP-FXR1P [1]): 11.7 ± 1 nM

B2: CR1 (ssRNA)
RNA: GCUAUCCAGAUUCUGAUU
- binding result (His6-MBP-FXR1P [2]; label: 3' fluorescein, single strand, no predicted G-quadruplex): no binding

B3: ΔKC2 (structured_RNA)
RNA: GGGCGAAUUCGGGAUUCCGACCAGAAGGGGCUAAGGAAUGGUGGGACGAGCUAGCGGCUGGUAUGUGCGUCU
- binding result (His6-MBP-FXR1P [2]; label: 3' fluorescein (FTSC, periodate-oxidized 3' end), loop-loop pseudoknot (kissing complex)): binds
